How the values were obtained:
[1] = system: Flavo-KRS (monomeric full-length KRS with E. coli flavodoxin inserted at G310) (Homo sapiens / Escherichia coli fusion); assay: EMSA; settings: affinity from percent free tRNA; slightly weaker than native KRS; 0.1 uM tRNA; 20 mM HEPES pH 7.5, 20 mM KCl, 5 mM MgCl2, 2 mM DTT, on ice
[2] = molecular target: KRS (lysyl-tRNA synthetase, full-length 1-597) (Homo sapiens) (UniProt Q15046); assay: EMSA; settings: affinity from percent free tRNA; 0.1 uM tRNA; 20 mM HEPES pH 7.5, 20 mM KCl, 5 mM MgCl2, 2 mM DTT, on ice
Sequence of KRS (lysyl-tRNA synthetase, full-length 1-597) (Homo sapiens) (Q15046 whole entry): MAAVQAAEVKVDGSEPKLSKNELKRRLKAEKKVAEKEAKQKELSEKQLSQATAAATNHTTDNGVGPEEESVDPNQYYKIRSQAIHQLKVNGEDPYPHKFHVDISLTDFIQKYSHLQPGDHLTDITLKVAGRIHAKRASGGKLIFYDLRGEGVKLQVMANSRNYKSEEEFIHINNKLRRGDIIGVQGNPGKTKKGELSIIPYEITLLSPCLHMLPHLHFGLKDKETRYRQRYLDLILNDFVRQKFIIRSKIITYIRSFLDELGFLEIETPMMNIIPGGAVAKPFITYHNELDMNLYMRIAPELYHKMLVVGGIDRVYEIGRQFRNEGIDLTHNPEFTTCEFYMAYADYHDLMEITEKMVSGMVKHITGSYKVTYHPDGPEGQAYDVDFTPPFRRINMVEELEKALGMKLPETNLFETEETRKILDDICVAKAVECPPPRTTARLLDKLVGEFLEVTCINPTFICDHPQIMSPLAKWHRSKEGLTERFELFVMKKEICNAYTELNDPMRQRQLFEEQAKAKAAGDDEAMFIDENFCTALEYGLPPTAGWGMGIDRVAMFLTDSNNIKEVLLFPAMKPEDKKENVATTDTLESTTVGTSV

Substance: human tRNALys3 (in vitro transcript)
- Kd [1]: 1.21 µM
- Kd [2]: 0.87 µM
